Laboratory results published in patent CN101228187A (UNIV RAMOT, dated 2008).

Target: MAP-PrP, multiple antigen peptide presenting amino acids 144-153 of human prion protein (human)
Assay: ELISA (Fig. 9)

B1: F2 scFv (scFv)
scFv: VQLLESGGGLVQPGGSLRLSCAASGFTFSGYWMHWVRQAPGKGLEWVSEISGSGDSTHYGDSVKGRFTISRDNSKNTLYLQMNSLRAEDTAVYYCARGRNGSLDYWGQGTLVTVSSGSAGGGGSGGGGSGGGGSDIVLTQPPSASGTPGQRVTISCSGTSSNIGADYDVHWYQQLPGKAPKLLIYDNNKRPSGVSDRFSGSKSGTSASLAISGLRSEDEADYYCAAWDSSLSSVVFGGGTQLTV
notes: also called TAR1; scFv F2
  binding result: no binding
